Source: patent publication EP4785961A1 (Fortvita Biologics Inc., dated 2025)

How the values were obtained:
[1] = biological target: T1, human HER3 (Sino Biological, 10201-H08H) (human, UniProt P21860 20-643); assay: BLI (Fortebio Octet Red96e), AHC sensors, HER3-MB3 and antigen each at 100 nM
T1 construct: Bought antigen; also called ErbB3

[2] = biological target: T2, monkey HER3 (Sino Biological, 90043-K08H) (cynomolgus monkey, UniProt G7PIG5 20-643); assay: as above
T2 construct: Bought antigen; also called Cynomolgus monkeys

[3] = biological target: T3, rat HER3 (Sino Biological, 80111-R08H) (rat, UniProt Q62799 20-641); assay: as above
T3 construct: Bought antigen

[4] = biological target: T4, mouse HER3 (Sino Biological, 51003-M08H) (mouse, UniProt Q61526 20-641); assay: as above
T4 construct: Bought antigen; also called Mice

[5] = biological target: HER3 expressed on tumor cell lines (NUGC4, HCC1569, NCI-H508, SW620, HCC827 HER3OX) (UniProt P21860 20-1342, limits assumed); assay: cell-based or functional assay

T3 sequence (Q62799 20-641 limits assumed, stated change not applied): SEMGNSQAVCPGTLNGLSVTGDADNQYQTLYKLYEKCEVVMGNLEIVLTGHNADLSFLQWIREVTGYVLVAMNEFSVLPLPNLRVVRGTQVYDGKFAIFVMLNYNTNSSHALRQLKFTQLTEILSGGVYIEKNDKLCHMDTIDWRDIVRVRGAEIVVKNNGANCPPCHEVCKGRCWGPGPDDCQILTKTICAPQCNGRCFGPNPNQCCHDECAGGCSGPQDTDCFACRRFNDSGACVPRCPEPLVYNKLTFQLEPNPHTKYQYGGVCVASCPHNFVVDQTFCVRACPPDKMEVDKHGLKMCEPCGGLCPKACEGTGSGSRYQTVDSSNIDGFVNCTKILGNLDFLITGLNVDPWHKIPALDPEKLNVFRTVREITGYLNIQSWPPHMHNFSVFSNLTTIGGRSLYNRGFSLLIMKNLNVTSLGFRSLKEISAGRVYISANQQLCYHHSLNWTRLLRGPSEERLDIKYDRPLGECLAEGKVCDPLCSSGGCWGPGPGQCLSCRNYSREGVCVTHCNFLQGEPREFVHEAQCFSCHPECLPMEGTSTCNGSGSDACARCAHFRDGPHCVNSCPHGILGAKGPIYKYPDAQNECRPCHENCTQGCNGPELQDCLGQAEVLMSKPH
T4 sequence (Q61526 20-641 limits assumed, stated change not applied): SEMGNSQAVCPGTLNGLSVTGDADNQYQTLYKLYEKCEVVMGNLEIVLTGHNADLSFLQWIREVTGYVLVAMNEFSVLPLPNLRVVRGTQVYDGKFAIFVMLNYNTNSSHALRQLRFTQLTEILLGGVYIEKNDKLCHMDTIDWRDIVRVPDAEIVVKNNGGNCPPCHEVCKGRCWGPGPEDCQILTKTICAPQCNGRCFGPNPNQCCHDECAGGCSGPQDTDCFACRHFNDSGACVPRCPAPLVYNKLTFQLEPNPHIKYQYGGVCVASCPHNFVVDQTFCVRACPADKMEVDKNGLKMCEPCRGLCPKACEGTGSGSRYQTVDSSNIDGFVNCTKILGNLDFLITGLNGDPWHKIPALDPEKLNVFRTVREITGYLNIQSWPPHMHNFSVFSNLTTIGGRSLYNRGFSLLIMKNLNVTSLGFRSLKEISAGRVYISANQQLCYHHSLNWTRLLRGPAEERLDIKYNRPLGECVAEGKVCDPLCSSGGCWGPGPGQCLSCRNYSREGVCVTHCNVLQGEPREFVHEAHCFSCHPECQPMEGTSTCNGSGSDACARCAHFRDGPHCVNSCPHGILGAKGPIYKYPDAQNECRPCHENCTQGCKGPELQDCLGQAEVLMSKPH
T2 sequence (G7PIG5 entry or part of it K08H K08H): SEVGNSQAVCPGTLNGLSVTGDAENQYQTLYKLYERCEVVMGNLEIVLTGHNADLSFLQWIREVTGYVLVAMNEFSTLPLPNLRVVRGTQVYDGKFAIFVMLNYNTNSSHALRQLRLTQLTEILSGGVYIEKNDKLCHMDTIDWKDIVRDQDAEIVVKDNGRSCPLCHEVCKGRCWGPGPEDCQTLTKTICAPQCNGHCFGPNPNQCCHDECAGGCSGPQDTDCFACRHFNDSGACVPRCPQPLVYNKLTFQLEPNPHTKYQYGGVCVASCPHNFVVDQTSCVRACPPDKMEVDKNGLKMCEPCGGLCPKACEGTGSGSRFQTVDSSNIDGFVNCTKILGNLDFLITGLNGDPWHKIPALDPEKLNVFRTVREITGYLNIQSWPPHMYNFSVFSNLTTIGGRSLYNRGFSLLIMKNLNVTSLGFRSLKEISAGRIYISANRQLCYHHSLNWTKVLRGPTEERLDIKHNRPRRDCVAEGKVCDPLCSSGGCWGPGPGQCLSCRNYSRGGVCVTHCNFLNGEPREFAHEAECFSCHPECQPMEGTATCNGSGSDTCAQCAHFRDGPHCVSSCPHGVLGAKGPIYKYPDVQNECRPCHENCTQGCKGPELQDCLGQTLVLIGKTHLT

B1: HER3-MB3 (patritumab-MB3) antibody-drug conjugate (antibody, human IgG1, kappa, V domains shown)
VH: QVQLQQWGAGLLKPSETLSLTCAVYGGSFSGYYWSWIRQPPGKGLEWIGEINHSGSTNYNPSLKSRVTISVETSKNQFSLKLSSVTAADTAVYYCARDKWTWYFDLWGRGTLVTVSS
VL: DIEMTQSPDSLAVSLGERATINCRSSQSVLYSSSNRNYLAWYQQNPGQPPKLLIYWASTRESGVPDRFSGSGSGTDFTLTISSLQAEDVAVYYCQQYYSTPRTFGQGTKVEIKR
modifications: drug-linker MB3 (payload MB1) conjugated to cysteines after TCEP reduction; conjugated positions not given; drug-linker MB3 (payload MB1) conjugated to cysteines after TCEP reduction; n mainly 8, average DAR 7.56; conjugated positions not given
notes: Antibody-drug conjugate; also called HER3-ADC
Kd [1]: 2.42 nM | koff [1]: 0.000463 s⁻¹ | kon [1]: 191000 M⁻¹ s⁻¹ | Kd [2]: 2.55 nM | koff [2]: 0.000562 s⁻¹ | kon [2]: 221000 M⁻¹ s⁻¹ | Kd [3]: 38.8 nM | koff [3]: 0.00615 s⁻¹ | kon [3]: 158000 M⁻¹ s⁻¹ | Kd [4]: 45.8 nM | koff [4]: 0.00989 s⁻¹ | kon [4]: 216000 M⁻¹ s⁻¹ | IC50 of in vitro killing, HCC1569 tumor cell line (3D culture, 7 days, Cell-Titer) [5]: 0.07 nM | IC50 of in vitro killing, NUGC4 tumor cell line (3D culture, 7 days, Cell-Titer) [5]: 0.55 nM
